Here are results for 1 sequence from PMC7156744, “CdbA is a DNA-binding protein and c-di-GMP receptor important for nucleoid organization and segregation in Myxococcus xanthus” (Nature Communications, 2020).

Data set [1] addresses T1, CdbA K8A/S10A-His6 K59A;S61A (Myxococcus xanthus DK1622) (UniProt Q1D489).
T1 sequence: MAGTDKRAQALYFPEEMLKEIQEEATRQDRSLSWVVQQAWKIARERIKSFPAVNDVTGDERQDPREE
The data set can be described thus: EMSA. The conditions noted are these: 10x buffer: 380 mM HEPES, 380 mM NaCl, 50 mM MgCl2, 50% glycerol, 10 mM DTT, 15 ng/ul poly(dI-dC), 50 ng probe, 30 C 30 min, 10% PAGE 1x TBE 4 C, pH not …. In general terms: A gel shift assay detects complexes by their altered migration in electrophoresis.

Data set [2] has as its target T2, CdbA R27A/R30A-His6 R78A;R81A (Myxococcus xanthus DK1622) (UniProt Q1D489).
T2 sequence: T1 sequence with A8K, A10S, R27A, R30A
The data set can be described thus: EMSA. The conditions noted are these: 10x buffer: 380 mM HEPES, 380 mM NaCl, 50 mM MgCl2, 50% glycerol, 10 mM DTT, 15 ng/ul poly(dI-dC), 50 ng probe, 30 C 30 min, 10% PAGE 1x TBE 4 C, pH not ….

Numbering of substitutions follows the chain as printed.

Regarding “ACTTGGGTCTCCGGGGCGGATTCGGGGTGACGACCTGAACACACCTGGGCCGTTATCCGACAGACTCCCAAGTGGGTCAACGGTTTCCAAGGACTCATTCCGAGGTCGCACGGTCCGTCCCCGTGCTCGTCCAGTTGCACGTAAGCTGTGCAACCATGCGCGAAAAAGGAAACGCCCCGGACTCCACGAGGAAGTCCGGGGCGCTTCGGAAAGAGGGACCGCCTAGAGAAATCTCCAGGCGGGCCCGTGG (double strand) [cdbAB promoter]”, the binding result in data set [1] and in data set [2] was “no binding” throughout.
